Data as given in article PMC6893399.

Key:
[1] = open-field test; conditions: glycan lost; control: wild-type littermates
[2] = maximum speed, NOR test phase; conditions: glycan lost; control: wild-type littermates
[3] = distance travelled, NOR test phase; conditions: glycan lost; control: wild-type littermates
[4] = histology, four points along cortex; conditions: glycan lost; control: wild-type littermates
[5] = total CRMP2 western blot, brain lysate; conditions: glycan lost; control: wild-type mice
[6] = histology, lateral and third ventricles; conditions: glycan lost; control: wild-type littermates
[7] = spontaneous alternation, enclosed plus maze; conditions: glycan lost; control: wild-type littermates
[8] = P509/514-CRMP2 antibody western blot, brain lysate; conditions: glycan lost; control: wild-type mice
[9] = 3F4 (P509/514/518/522) antibody western blot, brain lysate; conditions: glycan lost; control: wild-type mice

Substance: CRMP2: Crmp2S517A
- other: anxiety and locomotor activity [1]: no change
- other: locomotion during NOR test phase, other: speed [2]: decreases, 0.124 ± 0.017 vs 0.145 ± 0.027
- other: locomotion during NOR test phase, other: distance [3]: decreases, 9.4 ± 2.0 vs 12.8 ± 3.4
- other: cortical thickness, other: thickness [4]: no change, 1127 ± 93.24 vs 1197 ± 175.4
- expression_or_secretion [5]: no change
- other: brain ventricular volume, other: volume [6]: no change, 4.160 ± 1.252 vs 3.592 ± 1.155
- other: spatial working memory [7]: no change
- other: CRMP2 phosphorylation at GSK3β sites [8]: no change
- other: CRMP2 phosphorylation at GSK3β sites [9]: no change
